Reference: the supplement of paper PMC9112550, “Optimization of the antimicrobial peptide Bac7 by deep mutational scanning” (BMC Biology, 2022)

System: Escherichia coli TOP10
Assay: shrunken log2 fold change of peptide-encoding DNA abundance (4.5 h post-induction vs induction); higher = less antimicrobial activity (less host growth inhibition)
Conditions: time post-induction: 4.5 h; library: site-saturation at positions 5, 18, 19, 20
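Note: peptides expressed intracellularly from a pBAD plasmid library in pooled LB shake-flask culture, induced with 0.3% L-arabinose, DNA abundance read by NGS, three biological replicates, DESeq2 with apeglm shrinkage.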

| Sequence | shrunken log2 fold change |
| --- | --- |
| RRIRWRPPRLPRPRPRPCHTPRP | -0.53 |
| RRIRCRPPRLPRPRPRPRYFPRP | -0.529 |
| RRIRHRPPRLPRPRPRPTKIPRP | -0.316 |
| RRIRFRPPRLPRPRPRPGIFPRP | -0.218 |
| RRIRYRPPRLPRPRPRPVNAPRP | -0.361 |
| RRIRYRPPRLPRPRPRPQPWPRP | -0.149 |
| RRIRCRPPRLPRPRPRPTVKPRP | -0.286 |
| RRIRTRPPRLPRPRPRPITTPRP | -0.438 |
| RRIRTRPPRLPRPRPRPCWHPRP | -0.119 |
| RRIRFRPPRLPRPRPRPWFFPRP | -0.393 |
| RRIRTRPPRLPRPRPRPMALPRP | -0.0542 |
| RRIRMRPPRLPRPRPRPCANPRP | -0.0263 |
| RRIRIRPPRLPRPRPRPSQQPRP | -0.11 |
| RRIRDRPPRLPRPRPRPSMQPRP | -0.157 |
| RRIRQRPPRLPRPRPRPLKVPRP | -0.102 |
| RRIRIRPPRLPRPRPRPPQPPRP | 0.343 |
| RRIRQRPPRLPRPRPRPCGTPRP | 0.0105 |
| RRIRGRPPRLPRPRPRPINPPRP | -0.0416 |
| RRIRSRPPRLPRPRPRPKDFPRP | 0.0212 |
| RRIRCRPPRLPRPRPRPYIDPRP | -1.39 |
| RRIRYRPPRLPRPRPRPWYHPRP | -0.0547 |
| RRIRTRPPRLPRPRPRPAVKPRP | 0.106 |

| Sequence | shrunken log2 fold change |
| --- | --- |
| RRIRHRPPRLPRPRPRPLCAPRP | -0.0531 |
| RRIRQRPPRLPRPRPRPWETPRP | -0.00136 |
| RRIRIRPPRLPRPRPRPSQDPRP | -0.31 |
| RRIRDRPPRLPRPRPRPGFPPRP | 0.0346 |
| RRIRFRPPRLPRPRPRPYNKPRP | -0.955 |
| RRIRSRPPRLPRPRPRPVCSPRP | 0.0822 |
| RRIRRRPPRLPRPRPRPFFWPRP | 0.381 |
| RRIRKRPPRLPRPRPRPQYHPRP | -0.432 |
| RRIRQRPPRLPRPRPRPIRIPRP | 0.0373 |
| RRIRVRPPRLPRPRPRPMLQPRP | 0.154 |
| RRIRERPPRLPRPRPRPNSIPRP | -0.317 |
| RRIRIRPPRLPRPRPRPSVFPRP | -0.219 |
| RRIRSRPPRLPRPRPRPILGPRP | -0.016 |
| RRIRARPPRLPRPRPRPTCHPRP | 0.427 |
| RRIRPRPPRLPRPRPRPIHTPRP | -0.177 |
| RRIRQRPPRLPRPRPRPKIKPRP | -0.273 |
| RRIRPRPPRLPRPRPRPYEDPRP | -0.163 |
| RRIRMRPPRLPRPRPRPLSGPRP | 0.815 |
| RRIRKRPPRLPRPRPRPLNNPRP | -0.0972 |
| RRIRNRPPRLPRPRPRPCRLPRP | -0.0199 |
| RRIRIRPPRLPRPRPRPTCVPRP | 0.00176 |
| RRIRKRPPRLPRPRPRPERYPRP | -0.0119 |

| Sequence | shrunken log2 fold change |
| --- | --- |
| RRIRPRPPRLPRPRPRPSERPRP | -0.0297 |
| RRIRRRPPRLPRPRPRPCEWPRP | -0.0585 |
| RRIRDRPPRLPRPRPRPFRNPRP | -0.0013 |
| RRIRFRPPRLPRPRPRPQSKPRP | 0.379 |
| RRIRVRPPRLPRPRPRPPNTPRP | -0.0576 |
| RRIRERPPRLPRPRPRPYKVPRP | -0.0366 |
| RRIRARPPRLPRPRPRPKGDPRP | -0.07 |
| RRIRMRPPRLPRPRPRPIGKPRP | 0.208 |
| RRIRVRPPRLPRPRPRPFKGPRP | -0.0313 |
| RRIRARPPRLPRPRPRPTFKPRP | 0.341 |
| RRIRCRPPRLPRPRPRPIQLPRP | -0.0847 |
| RRIRQRPPRLPRPRPRPLQEPRP | -0.129 |
| RRIRNRPPRLPRPRPRPCWFPRP | -0.00192 |
| RRIRRRPPRLPRPRPRPAIGPRP | 0.136 |
| RRIRERPPRLPRPRPRPPVHPRP | -0.145 |
| RRIRPRPPRLPRPRPRPMTSPRP | 0.0205 |
| RRIRRRPPRLPRPRPRPKCNPRP | -0.0456 |
| RRIRTRPPRLPRPRPRPTTDPRP | -0.0867 |
| RRIRERPPRLPRPRPRPPTFPRP | -0.767 |
| RRIRDRPPRLPRPRPRPICCPRP | 0.037 |
| RRIRTRPPRLPRPRPRPWNCPRP | -0.214 |
| RRIRERPPRLPRPRPRPYTEPRP | 0.0251 |

| Sequence | shrunken log2 fold change |
| --- | --- |
| RRIRDRPPRLPRPRPRPPIKPRP | -0.204 |
| RRIRWRPPRLPRPRPRPHEMPRP | 0.433 |
| RRIRTRPPRLPRPRPRPQRVPRP | -0.0793 |
| RRIRFRPPRLPRPRPRPWWHPRP | -0.334 |
| RRIRFRPPRLPRPRPRPQNYPRP | -0.502 |
| RRIRLRPPRLPRPRPRPHSFPRP | 0.0434 |
| RRIRYRPPRLPRPRPRPAVNPRP | 0.063 |
| RRIRVRPPRLPRPRPRPYCDPRP | -0.348 |
| RRIRWRPPRLPRPRPRPWKYPRP | -0.679 |
| RRIRPRPPRLPRPRPRPKMHPRP | 0.153 |
| RRIRIRPPRLPRPRPRPFEMPRP | -0.22 |
| RRIRWRPPRLPRPRPRPHALPRP | -0.118 |
| RRIRPRPPRLPRPRPRPNWPPRP | 0.0357 |
| RRIRFRPPRLPRPRPRPWWIPRP | -0.681 |
| RRIRCRPPRLPRPRPRPDSVPRP | -0.894 |
| RRIRSRPPRLPRPRPRPNAWPRP | -0.0228 |
| RRIRVRPPRLPRPRPRPWLRPRP | -0.171 |
| RRIRARPPRLPRPRPRPMQWPRP | 0.442 |
| RRIRFRPPRLPRPRPRPASLPRP | -0.227 |
| RRIRTRPPRLPRPRPRPYAMPRP | -0.462 |
| RRIRTRPPRLPRPRPRPILCPRP | -0.0876 |
| RRIRLRPPRLPRPRPRPCCMPRP | -0.408 |

| Sequence | shrunken log2 fold change |
| --- | --- |
| RRIRIRPPRLPRPRPRPACPPRP | -0.146 |
| RRIRLRPPRLPRPRPRPCMSPRP | 0.0623 |
| RRIRYRPPRLPRPRPRPADIPRP | -0.0376 |
| RRIRIRPPRLPRPRPRPIMKPRP | -0.227 |
| RRIRPRPPRLPRPRPRPCAPPRP | 0.159 |
| RRIRYRPPRLPRPRPRPTKMPRP | -0.22 |
| RRIRLRPPRLPRPRPRPWTWPRP | 0.0307 |
| RRIRPRPPRLPRPRPRPVYCPRP | -0.375 |
| RRIRVRPPRLPRPRPRPFWIPRP | -0.182 |
| RRIRDRPPRLPRPRPRPRQWPRP | 0.36 |
| RRIRGRPPRLPRPRPRPIMDPRP | 0.0794 |
| RRIRARPPRLPRPRPRPLMFPRP | 0.187 |
| RRIRIRPPRLPRPRPRPFEHPRP | -0.321 |
| RRIRKRPPRLPRPRPRPQNWPRP | 0.508 |
| RRIRKRPPRLPRPRPRPHESPRP | 0.23 |
| RRIRPRPPRLPRPRPRPILHPRP | -0.277 |
| RRIRSRPPRLPRPRPRPMYTPRP | -0.0916 |
| RRIRIRPPRLPRPRPRPPADPRP | 0.271 |
| RRIRHRPPRLPRPRPRPVDTPRP | -0.508 |
| RRIRWRPPRLPRPRPRPHCCPRP | -0.124 |
| RRIRYRPPRLPRPRPRPGAGPRP | 0.0814 |
